# Measured values reported in patent US20210355212A1 (published 2021).
# T1: mouse C-KIT (SB, Lot #LC05DE2304) (mouse, UniProt P05532 25-523)
# T1 chain: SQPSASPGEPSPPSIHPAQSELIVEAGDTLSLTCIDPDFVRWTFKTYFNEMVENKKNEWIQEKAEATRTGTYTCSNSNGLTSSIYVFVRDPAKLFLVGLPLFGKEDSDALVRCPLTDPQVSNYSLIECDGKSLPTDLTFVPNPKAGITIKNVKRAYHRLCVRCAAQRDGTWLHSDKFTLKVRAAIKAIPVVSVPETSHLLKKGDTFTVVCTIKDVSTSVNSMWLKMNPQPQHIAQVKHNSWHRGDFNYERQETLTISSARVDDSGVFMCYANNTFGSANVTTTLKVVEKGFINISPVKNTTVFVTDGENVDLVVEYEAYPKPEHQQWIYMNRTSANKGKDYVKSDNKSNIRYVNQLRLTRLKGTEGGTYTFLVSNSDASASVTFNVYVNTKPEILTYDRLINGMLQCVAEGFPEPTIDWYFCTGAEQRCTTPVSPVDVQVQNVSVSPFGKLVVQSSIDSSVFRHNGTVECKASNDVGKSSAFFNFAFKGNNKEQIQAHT
# B1: 2G4 antibody (antibody, V domains shown)
# VH: QVQLVESGGGVVQPGRSLRLSCAASGFTFSRYGMHWVRQAPGKGLEWVAVIWYDGTNKDYTDSVRGRFTISRDNSKNTLYLQMNSLRAEDTAVYYCAREDWAEAFDMWGQGTTVTVSS
# VL: not shown
# Target: T1, mouse C-KIT (SB, Lot #LC05DE2304)
# Assay: SPR
binder,measurement,value
B1,Kd,11.5 nM
